Source: the NTF2 design screens of Basanta et al. (2020)

test: protease stability score; higher = more stable; yeast display proteolysis, trypsin and chymotrypsin;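 further: log10 excess protease needed over predicted unfolded state with 0 meaning unfolded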

In order of falling protease stability score:
1. EEEVVKEVTKAAKTGNFEKLLRLADPNVEMRIGDKTFHGRTELKDALRDIKQNADHIELKSLDSHNGRLEVDLVVNVNGKDVRFILRVSVHNGRITQMSVESRDTDFKKVLDEMLG  1.91
2. EEETVKHLVQLFRTGDWDQLAKEMRDNVEVIIGDKRLHGRENAEQLARILKKHIDHQSYESMTFHNGKLVMKYEFVFNGRRVRARLVVNVHNGKIVNMQLDFTDPRDERLWKKVVE  1.66
3. EEEVQHKIKQLLKNNDWTTLADQVDPNARMVVGDKTVTGREQIQTIARRIQERVDHVEFKQLTVQGDHIDVVMVVNINGEHIKMHFIFRVHNGHIKHVEMQATDPRDQKKLKDLLE  1.54
4. EEHDERTMHRLVETNDWETISRNADKDVKFQVGNKSYHGKEEFTEVLRKITKRADHIEYRSFNSHNGRIDVDYVFVVNGKEVKVFVQIQVHNGRIKHMRMRATNPDQQQELVDQLS  1.44
5. EEELVKRLKELFEAYQTGDEHQLKDLMDPNVRANIGDKTFHGREKLITHIKRYLDELDFQLKSVTFRLSGDHAVVTFEIEVDVNGVPRSFRFRFHIKMSNGKVTEIEIQFDPERQKKLES  1.38
6. EEESAQEFMKNLNTGNFEELNKMADENARMQVGDKTFQGRHQIETLLKTLKKQIDHVSFKSVEMNGDKVDAKVVFQVNGQHFEVIVKVDVRGDRVTHVTYEFTNEDQEERFKRAVQ  1.35
7. EEELRNVYRDLLEAEERGNPDDIKRLVDPNARLQIGDKEIHGREHLMRFVEEVRKEIRFEIDRLDVTATGETAKVDARVKQNHNGQPESWHYTVQVKYHNGRIVNLRMRRTS  1.31
8. EEENQQIAEDVVDVLRTGDHEKFMHMADPNVKVVIGDKQYRGREDFSKIVKTWKDQMRLHIQIKDVKVEGDEVHVEADYLMKHNGKPVRDTITLVIRFDNGKIKEVQYEVDEDVLRKLES  1.14
9. EEEQLKILQELRKALQDNDSERMKELFDEDVKVQVGDKTITGREKVVDDLRRKAEEQRIQYVTMSARAENGHITVRLQFVNTHNGRPHRRERKLDITLHNGKFKSARYDNDG  0.842
10. EEENVKLVERFLKAVLEGDEDQLRRLMDPNARVRVGDKVLTGRDRVAEHFKERSQQWQFHIDVKHVSVNGDHIIMHFQFSMTVNGQPRSATMTAVFRVHNGRIQQVEFRLPEEDQKTIRG  0.811
11. EEKNQHVAQQWLEMVQNGDPRKAKQQFDKDARVKIGDKELNGREEIVRQFEREQREMRVDIKDYKIDVNGDKVTVRLHVEVQSNGTPTTRDYVVHMQVHNGRVQMVIFRSDG  0.747
12. EEEVEKAAERVAEVMKDNNPERVEELFDPNAHITVGDRTLHGREELSKHYKTMTDQWRIQIDRFSVEDHGSTVVIRIDFEADHDGRPEKREVIIKLSVSNGRVSWAIFKVDQ  0.734
13. EEHLQERLTKLNEAEQKGDPKKILEQVDPNARVEVGDKTYHGMDRYARRVAKEMNEMRVEVHIKDLKVRGNNIHAEMSATHTKNGKPSHNEFTLVVVWNNGRVTSIVVTHKS  0.717
14. EEENFNRANEFMKAVETNDPDKLKHNADENVQITYGDKSYQGRESWAKDLQRKLKHMRWRYEFKSYHDTGDSVDVSLRVMATVNGKPRDFHLRMIIHFKNGKIKNIELRLDPDELDKLES  0.648
15. EEELRHTAHELQKAYEENDPEKILENLDPNAQVQIGDRRVHGRHEIRKLMEHFERQARVRVHDVKVDVHGNKINIQVDAEQNHNGEPRSFTVQAEMTMHNGRVKSIDMKIQG  0.612
16. EEELVKKAKTFMKQEEDGNPEKLKEYADENVRMHVGNKEVRGMDQYAEDVRRKREEARFSFKSIDAKASGDKITVRATLTFNVNGKPVEIDMTIILKLHNGRLKFLKVRVDPDEERRLES  0.595
17. EEHVKHIVDQLIKVLQHNDEKLWERLVDPNAEIRVGDKSIRGRERFSEEVRRQKHQARMQWKSVQVDVHGDKAVLHFSAEFQVNGQPADFDVTMHIQVHNGTVKRMFVQVPEKDVQRKTS  0.459
18. EEHLKQTFKEYMENYRTGNEEQLHSMVDEEAKFSYGDKKIHGRTEAIKQLVRRREEMRWDVQIKDMEVHNGRIEVDARVRFKHNGQPDDQKVVFRAVIHNGRFKMISEQYQP  0.376
19. EEHQQKLIEEVLKAMDSGDEDRIKELVDPNAEFHVGDKTWHGMQDWARHVREEVEQIDFTWVNMEIRVKNGTVIMKARFEETRDGQPRTQNVNLRARVHNGRLTSMENDQHG  0.375
20. EEEMVKHIKRVLENNDEERRAQLADKDAHARVGDRHVHGREELEKIVHHIKRRVDHLEVKDVKADGNTIEADVVMQVDGRTMQYNLTIILHNGTIKSVTIKVRNEEQKKLMEELFG  0.317
21. EEERDKFAKILLHAILTGNEEQFKRLADPNATFNIGDRKIHGMERYTKQMKQEVDRIKIKVESVKISVSGNKITIDMVATFNVNGQPVTIRFVLDVTIKNGRVSELVLRVSDEQLQKMRR  0.308
22. EEHVLTRFNSNMSNNNFNHIRDMADENAKMRVGDQEYHGRDNIHRLLEELKTQADHIQVRDYNHRGEHVHVDVEMVINGQKLVARWHAEIKNGRIKEMVLQFTNEEQEKTVRKALR  0.302
23. EEENVKVAQEIINIEDRGDSDQIHRLFDPNAHWTVGDQDIHGRETWLTKFRKEREEMRVRFRTLHFNAHNGRAVVRVEQEVTHNGTPTTKVYIMKVEFRNGKVKSIVFQSDG  0.235
24. EEKNRKVFEEAMKAFQTNDKDQAERMFDENATVKIGDQEIHGNKQIREHIRTMEEHMRLEIKSIDLKVSNGRVHANITFVEEHNGEPKTLRLHVRAEVDNGTIESMQFNDDG  0.159
25. EEENQKLAKKFITAVNKGNPKELNENVDPNARLVIGDKTIHGRETLDRWAKKVKDDMRNHWHVTSLRVSNGDIKADVKVVINHNGKPDDFTLDMTMEVHNGKIKRMDARDSQ  0.157
26. EEHQTKEWSKMLEVMTKGDKDKFRERADPNVRARVGDRTLHGWENVVRTELRRQHEISIDIHEMDVRSEGDKVVARYEFRQNQNGRPRRRDVTVTFRLHNGRLQEQHVQDTG  0.148
27. EEEQLHNVVRALNQNDFDKFRKLIDPNARVVVGDKSWHGREDLSNYIKQLQDHVDHRTVKDVKWHNGKIHADVEQTVNGKKMRFVFQAVVKGDKVKELNMKFRDERVETLMRKVLR  0.14
28. EEETVKRMAEHVNHALQENDPKKMNDLFDENVQVDVGDTRIHGREDLTKYVKTFKQRVDQVEIQRVDVQGNTVVILMVLEHNGHRRQVVVIMHFHNGKVKEMRVTDK  0.097
29. EEEVAKHALEIMITGDPKQIKEMVDENAHVKVGNKEWHGREHMVHWAEQLHTQVDHREVRSMEVNGNTARVDLVVTINGHHIRFILRATIHNGRVQHLSLEVTNEEQQTQWERNLS  0.075
30. EEEQLKTVKQWQENEKTGNEEELKKQADPNAKFRIGDHEVRGMENYAHDVIRRVKDARVDYETISHDVNGDRVVIRAVYRMNHNGRPSSYEYTVHYEMHNGKMKNVTVNKRQ  0.041
31. EEKNQEHAEQVFRAYKDGDPNQIQRLLDPNAHARIGDKQLHGREQAREIMHRLRRHLQMDLKLQDVKAEGDKLQLNARAKHDDNGRPNDVKITITFDLQNGRIKSMSVKMSG  0.022
32. EEENSKLMEEIVKAISNGNPDRVRENMDPNARARYGDKRIHGMENILTQIERRWRQIRIQVDDVKLSVENGTINVDIQQRNDNNGQPDNFRLEASASVENGKVKEMNVVKRP  0.014
33. EEEQQKVLEELFRVLQEGDEKRAIKLADPNAKFNVGDKQYNGMEEYARSVATEIRNIRVEIETMDARVQGDHVQVNIVVNYKINGQPFRMTIKVRANVHNGQVHELNMHVDEDQQRKLKT  0.014
34. EEHVMRIVTNQLEAIKHGDEDRVRDLADPNARFHVGDKSIHGMEKYANDLRSEMEHMQVEFNLQSVTVEGDKVVITFEAQFNQNGKPKNYREVFRVEAQGDKIKDYRQERKD  0.001
35. EEHLQKTVEEMIKLIRHGNEHKVQENIDPNARIVIGEKRIRGRETFAHLLSKRHKEQRYEVREIKLTVQGEKVKVSMDVVADINGKPIRFSIDMFLHASNGKVKDIQYRISEEQRDKQQG  -0.033
36. EEHMEDSFRKWKDNLRTNDEKSLEKMADPNATFDVGDKRFRGMHKYVHDLVNTLRSMRVDIKINSIDVQGDKIKARAQATVYHNGRPQRYTFSFEIKINNGHIQRLVRKDDQ  -0.035
37. EEEVEDQAKKYAKALHDNDPKTLSKLADKDAEFRYGDHQFHGREEVEKHWEKELKEIEVDWRVVDVKAHNGQVRIRFQAHRHHNGDPKNDNRKASARVTNGRIKKIEWVEDH  -0.059
38. EEKLRERIKKFIDIMQTGNPEELEKQADEDAHFEIGEKRVHGMDDYAKEVQRELEDAQVRINVDSVRASNGRVEAHATMSETRNGQPRTAELKLEAQFHNGRIKHVRLHKHQ  -0.059
39. EEEVSKRAREFVEAYQTGNEDKMHRLVDENADAQYGDKHIHGMTEIKRHVKRLTEEIRVQVESMDVKANNGHVRVRVHLVLHINGNPIDVTVIIVMRFKNGTIRSVQFRMPEEARDTIRK  -0.077
40. EEHIKEVLDRVREAWRKNNPDDLKRNFDPNARFNIGNKRYHGMEHFVEDVARLLHEIHVEIHYHHITFDGNEARFSYDAVFNVDGRPIRDSMSRRVILHNGKIVDMKVDVDPKELDKKLK  -0.093
41. EEEVKRKMKEYFDVARHGDPDRLREYVDENARIHIGDKVIHGMSDAADHLAQHYKEIRFDYTRIDVKAEGDQVKVDIDVVVNHNGRPEQVHLHWEARFTNGRVKHMKVQRQK  -0.108
42. EEERQKKAEQWVHAYRHNNEDEIRQLADPNVRFNVGDTRITGRENVMKTLDDQMRHQRVRFHDIQIRVKGDKINITIDAEYESNGRPSRRTLSLEMHLHNGKISHARIDIQG  -0.128
43. EEKAEELVERFITAIETNDPDEVVNNIDPNARLRVGDKHVSGRDHQRQQVEEQERHMRVKYQHVRIDVTGDHARVHVVQVDNHNGKPRRFKYSASFVVQGDKIKHASQTTTE  -0.163
44. EEESHQVAENIARILQTNDPRRLAELMDENARVRVGDTQLSGREDIEKQMDKEMKEIRVEIKNYEIDAKGEKIDIDVDQVFVHNGKPDRQRVKYDFDLRNGQIKRASVSVHK  -0.188
45. EEHLESLVRNLEEAVKKGNPEEMKKNLDKNARMVYGDKRLHGMSDILTEIEKRREHMRLEHEVKSIDNQGNKAKVTARLDVNVNGHPVDVDFIIHIKVHNGHVLEIVYQLPPEAHEKLKT  -0.278
46. EEKIVDILERMVTALHTGDPDTVHENLDPNAHVVIGDKEFTGMDTMHRTLERQKKEIRIQINSYSVHAQGNKADIDIDMVNEHNGHPDRNRYRVDAKVHNGKIKQVRYEEVS  -0.38
47. EEHLKHVVEELWKAMQTGDEDKIRRNADPNAHFSIGDKVIQGRERFAQDVRQTYDEIRVDIKIHRMNIQGEKVKVRFTFEQKVNGKPRSDENSAENTLHNGKVEEMNITIDPDKQRKFES  -0.43
48. EEKLEEQVEELLKNLDTGDENRARQLADPNVRARVGDKEYHGMEQFIKDQMDQRRNARIEVKDLRSEHHGDKITVDLSYKAQHNGRPTTVQREVTFHAHNGKFRQMKIEQSG  -0.521
49. EEKATRIAHELLSAVERGDEDRAEENFDENAQFQVGDKDIHGREQMKHFVKTVKEQSRLDMHITDVQDRPGHANVKATAREDNNGNPNNIRITMRASVSNGRIQSMQINYTD  -0.638
50. EEEQITKLEEVLKDVETGDPNKLIDNFDPNVRYDYGDKKYHGMTNWAKDVVSKAKEQHVTRHVTDVKVQGNHASMTADVNNDHNGRPHKQKQDIQFTFHNGKIKNVHVQETK  -0.667
